According to the nanobody polyreactivity screen of Harvey et al. (2022):

Assay: yeast display, Sf9 membrane polyspecificity reagent, FACS + sequencing; frameworks hold sequencing errors
How it was run: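 A synthetic nanobody library was expressed on Saccharomyces cerevisiae BJ5465 by galactose induction for 36–48 hours. The library was stained for 1 hour at 4 °C with 10% biotinylated, detergent-solubilized Sf9 membrane reagent and enriched with streptavidin microbeads before FACS. Low and high (top ~1%) gates were set on anti-HA fluorescence for expression and streptavidin fluorescence for reagent binding, and each polyreactivity label reflects the gate of origin.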

Sequence	polyreactivity (PSR sort gate)
QVQLVESGGGLVQAGGSLRLSCAASGIFYRYAMGWYRQAPGKEREFVAAISSTGGSTYYADSVKGRFTISRDNAKNSVYLQMNSLKPEDTAVYYCAKRGSRSGRSDYWGQGTQVTVSS	low polyreactivity
QVQLVESGGGLVQAGGSLRLSCAASGIGCYRQAPGKERELVAAINWSGGNTYYADSVKGRFTISRDNAKNTVYLQMNSLKPEDTAVYYCNAVVWVEVPGDYWGQGTQVTVSS	low polyreactivity
QVQLVESGGGLVQAGGSLRLSCAASGIICGDNALGLYRQAPGKEWELVAAISSSGTSTNYADSVKGRFTISRDNAKNTVYLQMNSLKPEETAVYYCAKDVLPPYPQSRSGGDYWGQGTQVTVSS	low polyreactivity
QVQLVESGGGLVQAGGSLRLSCAASGIIFAANAMGWYRQAPGKERELVAAISKNGGITYYADSVKGRFTISRDTAKNTVYLQMNSLKPEDTAVYYCAARWRQTRRYYYWGQGTQVTVSS	high polyreactivity
QVQLVESGGGLVQAGGSLRLSCAASGIIFAAYVMGWYRQAPGKERELVAAISKSGGRTYYADSVKGRFTISRDNAKNTVYLQMNSLKPEDTAVYYCATDVRVGHIRDYDYWGQGTQVTVSS	high polyreactivity
QVQLVESGGGLVQAGGSLRLSCAASGIIFAFYAMGWYRQAPGKERELVAAISIDGSTYYADSVKGRFTISRDNAKNTVYLQMNSLKPEDTAVYYCAAEGNGYLVSTWWVRYEYWGQGTQVTVSS	low polyreactivity
QVQLVESGGGLVQAGGSLRLSCAASGIIFAHNAMGWYRQAPGKERELVAAISKRGGSTYYADSVKGRFTISRDNAKNTVYLQMNSLKPEDTAVYYCNKYSSYSFTYDSWGQGTQVTVSS	high polyreactivity
QVQLVESGGGLVQAGGSLRLSCAASGIIFAKYAMGWYRQAPGKERELVAAISRSGGSTYYADSVKGRFTISRDNAKNTVYLQMNSLKPEDTAVYYCAAAYYRDGGDFDYWGQGTQVTVSS	high polyreactivity
QVQLVESGGGLVQAGGSLRLSCAASGIIFAQYAMGWYRQAPGKERELVAAISWSGGSTYYADSVKGRFTISRDNAKNTVYLQMNSLKPEDTAVYYCAADGYYGYYSQYEYLYYYWGQGTQVTVSS	high polyreactivity
QVQLVESGGGLVQAGGSLRLSCAASGIIFARNTMGWYRQAPGKERELVAAITSSGGNTYYADSVKGRFTISRDNAKNTVYLQKNSLKPEDTAVYYCAAYSRTLYPDRYYWGQGTQVTVSS	high polyreactivity
QVQLVESGGGLVQAGGSLRLSCAASGIIFARYAMGWYRQAPGKERELVAAITSGGGTSYADSVKGRFTISRDNAKNTVYLQMNSLKPEDTAVYYCNADGYLAERFVIRLDEYRDYDYWGQGTQVTVSS	low polyreactivity
QVQLVESGGGLVQAGGSLRLSCAASGIIFARYAMGWYRQAPGKERELVASINWTGGNTYADSVKGRFTISRDNAKNTVYLQMNSLKPEDTAVYYCARDFCPGSSDPKASISFDHWGQGTQVTVSS	low polyreactivity
QVQLVESGGGLVQAGGSLRLSCAASGIIFAWNTMGWSRHPPGKERELVAAISSSGGSTYYADSVKGRFTISRDNAKNTVYLQMNSLKPEDTAVYYCAADGYHWIHEYDYWGQGTQVTVSS	low polyreactivity
QVQLVESGGGLVQAGGSLRLSCAASGIIFAWYAMGWYRQAPGKERELVAAINWSGGSTYYADSVKGRFTISRDYAKNTVYLQMNSLKPEDTAVYYCARSSRGKLDYWGQGTQVTVSS	low polyreactivity
QVQLVESGGGLVQAGGSLRLSCAASGIIFAWYAMGWYRQAPGKERELVAGISQSGGRTYYADSVKGRFTISRDNAKNSVYLQMNSLKPEDTAVYYCAAQWYYSPYVSGDYWGQGTQVTVSS	high polyreactivity
QVQLVESGGGLVQAGGSLRLSCAASGIIFAYAMGWYRQAPAKEREMVAAISGRDGSTYYADSVKGRFTISRDNAKNTVYLQMNSLKPDDTAVYYCAKRFSDLPVEMDYWGQGTQVTVSS	low polyreactivity

Sequence	polyreactivity (PSR sort gate)
QVQLVESGGGLVQAGGSLRLSCAASGIIFDDYAMGWYRQAPGKERELVAAISVSGGSTYYADSVKGRFTISRDNAKNTVYLQMNSLKPEDTAVYYCAARLRQPYTRGNYWGQGTQVTVSS	high polyreactivity
QVQLVESGGGLVQAGGSLRLSCAASGIIFDEYAMGWYRQAPGKERELVAVIDWSGGSTYYADSVKGRFTISRDNAKNTFFLQMNSLKPEDTAVYYCAAEDDSTTPEFDYWGQGTQVTVSS	low polyreactivity
QVQLVESGGGLVQAGGSLRLSCAASGIIFDHNAMGWYRQAPGKERELVAAISTGGGNTYYADSVKGRFTISRDNAKNTVYLQMNSLKPEDTAVYYCATEPGYSYLTSYKYVYWGQGTQVTVSS	low polyreactivity
QVQLVESGGGLVQAGGSLRLSCAASGIIFDRYAMGWYRQAPGKEREFVAAISRRGGSTYYADSVKGRFTISRDNAKNTVYLQMNSLKPEDTAVYYCAKEIRYSSSVSESDYWGQGTQVTVSS	high polyreactivity
QVQLVESGGGLVQAGGSLRLSCAASGIIFDRYAMGWYRQAPGKERELVAAITYGGGSTYYADSVKGRFTISRDNAKNTVYLQMNSLKPEDTAVYYCAAVPRSGMYYWGQGTQVTVSS	high polyreactivity
QVQLVESGGGLVQAGGSLRLSCAASGIIFDSNAMGWYRQAPGKERELVAAITRTATRTYYADSVKGRFTISRDQAQNTVYLQMNSLKPEDTAFYYCADRGSTPQPGVGYWGQGTQVTVSS	high polyreactivity
QVQLVESGGGLVQAGGSLRLSCAASGIIFDSYAMGLYRQAPGKERELVAAITSRGGRTYYADSVKRRFTISRENAKNTVYLQMNSLKPEDTAVYYCAARAIYDRRTEGTSGYDYWGPGTQVTVSS	low polyreactivity
QVQLVESGGGLVQAGGSLRLSCAASGIIFDTNAMGWYRQAPGKERELVASISKRGGSTYYADSVKGRFTISRDNAKNTVYLQMNSLKPEDTAVYYCNALRRRQYHDDYWGQGTQVTVSS	high polyreactivity
QVQLVESGGGLVQAGGSLRLSCAASGIIFDTYTMGWTRHSPGKERELVAAITRRGSRTYYADSVKGRFTISRDNAKNTVYLQMNSLKREDTAVYYCNAVPRWSYVDEDSWGQGTQVTVSS	high polyreactivity
QVQLVESGGGLVQAGGSLRLSCAASGIIFDVYAMGWYIQAPGKERELVAAISSGGSTYYADSVKGRFTISRDNAKNTVYLQMNSLKPEDTAVYYCATAQSVIYRYEYWGQGTQVTVSS	low polyreactivity
QVQLVESGGGLVQAGGSLRLSCAASGIIFDYNAMGWYRPAPGKERELVAAISGRSGRTYYADSVKGRFTISRDNAKNTVYLQMNSLKPEDTAVYYCAARWYAGGNYWGQGTQVTVSS	high polyreactivity
QVQLVESGGGLVQAGGSLRLSCAASGIIFDYNAMGWYRQAPGKERELVAAISGRSGRTYYADSVKGRFTISRDNAKNTVYLQMNSLKPEDTAVYYCNALRLTRDPYDYWGQGTQVTVSS	high polyreactivity
QVQLVESGGGLVQAGGSLRLSCAASGIIFDYNAMGWYRQAPGKERELVAAITSTDNTNYADSVKGRFTISRDNAKNTVYLQMNSLKPEDTAVYYCNTDYWLSVVYAMDYWGQGTQVTVSS	low polyreactivity
QVQLVESGGGLVQAGGSLRLSCAASGIIFDYNAMGWYRQAPGKERELVASIDSGGSTNYADSVKGRFTISRDNAKNTVYLQMNSLKPEDTAVYYSNADDTTVSPWYYYYQSYYWGQGTQVTVSS	low polyreactivity
QVQLVESGGGLVQAGGSLRLSCAASGIIFDYNAMGWYRQAPGKERELVDSIDSGCSTNYADSVKGSFTISRDNAKNTVYLQMNSLKPEDTAVYYCNADDTTVSPWYYYYQSYYWGQGTQVTVSS	low polyreactivity
QVQLVESGGGLVQAGGSLRLSCAASGIIFDYYAMGWYRQAPGKERELVATITGNSTNTYYADSVKGRFTISRDNAKNTVYLQMNSLKPEDTAVYYCATAQTRWWPSIAGYDYWGQGTQVTVSS	high polyreactivity
